Data taken from article PMC6138665 (2018).
Non-standard residues stand in square brackets, D forms with d. No end group written: not given here. pS = N[C@@H](COP(=O)(O)O)C(=O)O

Columns and labels:
[1] = target: T1, LC3B protein (recombinant) (UniProt Q9GZQ8 1-120); test: ITC
[2] = target: T2, GABARAP protein (recombinant) (UniProt O95166 1-117); test: ITC
[3] = target: T1, LC3B protein (recombinant); test: NMR
[4] = target: -L1 protein (recombinant) (UniProt Q9H0R8 1-117); test: ITC
[5] = target: LC3A protein (recombinant) (UniProt Q9H492 1-121); test: ITC
[6] = target: T2, GABARAP protein (recombinant); test: NMR; GABARAP residue I32

T2 sequence (O95166 whole entry): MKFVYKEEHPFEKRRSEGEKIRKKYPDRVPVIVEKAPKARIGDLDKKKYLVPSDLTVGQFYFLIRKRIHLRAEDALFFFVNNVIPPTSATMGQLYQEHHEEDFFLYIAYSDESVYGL
-L1 protein (recombinant), sequence (Q9H0R8 whole entry): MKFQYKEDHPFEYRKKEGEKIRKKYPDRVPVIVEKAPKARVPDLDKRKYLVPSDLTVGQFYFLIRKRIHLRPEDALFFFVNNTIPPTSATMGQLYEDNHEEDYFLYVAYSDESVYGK

Row | Binder | Kd [1] [µM] | Kd [2] [µM] | Kd [3] [µM] | Kd [4] [µM] | Kd [5] [µM] | Kd [6] [µM]
1 | EALNDGVEYYWDQLNET [AMBRA1-LIR peptide, D-phosphomimicked (PM)] | ~50 | 31 | – | – | – | –
2 | EALN[pS]GVEYYWDQLNET [AMBRA1-LIR peptide, S1014 phosphorylated (P1)] | – | – | 46 | 25 | ~50 | 7
3 | EALNSGVEYYWDQLNET [AMBRA1-LIR peptide, unphosphorylated (P0)] | – | – | 193 | > 50 | – | 61
